Target: T1, GST-annexin A2 (human, UniProt P07355 1-339)
T1 construct: annexin A2 (ANXA2), human cDNA cloned into pGEX6P1; also called GST-ANXA2; source: E. coli, purified (glutathione beads)
Assay: far-Western, overlay or dot blot; purified proteins (10 µg) dot-blotted on nitrocellulose in duplicate; incubated with bio-PLG (10 µg) together with S100A11 (10 µg); 1 mM Ca2+, 50 mM Tris-HCl pH 7.4; detected with streptavidin-HRP or anti-S100A11
Conditions: both partners purified

T1 sequence (P07355 whole entry): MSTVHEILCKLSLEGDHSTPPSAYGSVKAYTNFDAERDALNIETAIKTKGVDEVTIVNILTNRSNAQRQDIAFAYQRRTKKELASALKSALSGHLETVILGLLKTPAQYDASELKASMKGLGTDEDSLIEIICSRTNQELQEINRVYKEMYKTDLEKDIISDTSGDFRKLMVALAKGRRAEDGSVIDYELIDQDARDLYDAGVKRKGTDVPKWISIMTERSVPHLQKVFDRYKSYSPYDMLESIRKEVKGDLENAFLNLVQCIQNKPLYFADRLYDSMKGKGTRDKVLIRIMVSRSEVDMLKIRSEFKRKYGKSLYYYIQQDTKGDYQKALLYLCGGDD

B1: S100A11 (recombinant, GST cleaved) (natural protein, human, UniProt P31949 1-105, looked up)
chain: MAKISSPTETERCIESLIAVFQKYAGKDGYNYTLSKTEFLSFMNTELAAFTKNQKDPGVLDRMMKKLDTNSDGQLDFSEFLNLIGGLAMACHDSFLKAVPSQKRT
notes: S100A11, human cDNA cloned into pGEX6P1; source: E. coli, purified (glutathione beads), GST cleaved by PreScission Protease and removed
  binding result: binds

Reference: article PMC11002074, “Lysyl oxidase-like 4 promotes the invasiveness of triple-negative breast cancer cells by orchestrating the invasive machinery formed by annexin A2 and S100A11 on the cell surface” (Frontiers in Oncology, 2024)
